Measurements: patent publication US20250382602
Changes are numbered by the printed parent chain.

Key:
Settings in all cases: nanopore translocation; background mutations not given
[1] = biological target: T1, Dda 1993 C114L C114L (Enterobacteria phage T4) (UniProt P32270)
T1 sequence: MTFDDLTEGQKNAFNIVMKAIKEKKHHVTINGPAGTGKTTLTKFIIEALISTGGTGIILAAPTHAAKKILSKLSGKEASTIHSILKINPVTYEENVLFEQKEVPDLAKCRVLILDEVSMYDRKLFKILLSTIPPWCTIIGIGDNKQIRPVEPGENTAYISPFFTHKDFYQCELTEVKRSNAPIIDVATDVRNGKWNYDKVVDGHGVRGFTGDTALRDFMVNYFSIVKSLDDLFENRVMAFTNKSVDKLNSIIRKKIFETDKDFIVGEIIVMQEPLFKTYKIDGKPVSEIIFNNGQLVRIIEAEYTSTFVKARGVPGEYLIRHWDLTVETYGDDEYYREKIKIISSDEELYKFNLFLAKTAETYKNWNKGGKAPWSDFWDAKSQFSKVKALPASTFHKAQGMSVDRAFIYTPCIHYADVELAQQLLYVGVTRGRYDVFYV

[2] = biological target: T2, Dda 1993 C114I C114I (Enterobacteria phage T4) (UniProt P32270)
T2 sequence: T1 sequence with L114I

[3] = biological target: T3, Dda 1993 C114T C114T (Enterobacteria phage T4) (UniProt P32270)
T3 sequence: T1 sequence with L114T

[4] = biological target: T4, Dda 1993 C114V C114V (Enterobacteria phage T4) (UniProt P32270)
T4 sequence: T1 sequence with L114V

[5] = biological target: T5, Dda 1993 C114P C114P (Enterobacteria phage T4) (UniProt P32270)
T5 sequence: T1 sequence with L114P

[6] = biological target: T6, Dda 1993 C114M C114M (Enterobacteria phage T4) (UniProt P32270)
T6 sequence: T1 sequence with L114M

“barcoded 3.6 kb DNA analyte ligated to sequencing Y adaptor” showed an activity (bps speed delta vs control) [1] of -42, an activity (bps speed delta vs control) [2] of 93.7 and an activity (bps speed delta vs control) [3] of -35.7. The activity (bps speed delta vs control) [4] was 26, the activity (bps speed delta vs control) [5] was 84.5 and the activity (bps speed delta vs control) [6] was 81.8.
